This note sets out measurements from FireProtDB (doi:10.1016/j.bpc.2008.09.020).

For the data set the following is noted: Pseudomonas aeruginosa (strain ATCC 15692 / DSM 22644 / CIP 104116 / JCM 14847 / LMG 12228 / 1C / PRS 101 / PAO1), 25 °C, GdnHCl, CD, Sodium acetate 20 mM, whole UniProt chain shown.

B1: Cytochrome c-551 wild type, P00099 (protein)
chain: MKPYALLSLLATGTLLAQGAWAEDPEVLFKNKGCVACHAIDTKMVGPAYKDVAAKFAGQAGAEAELAQRIKNGSQGVWGPIPMPPNAVSDDEAQTLAKWVLSQK
With B1, under “pH 3.6”, the denaturant m value was 2.88 kcal/mol/M, the “denaturant midpoint (higher = more stable)” value worked out at 1.44 M and the unfolding free energy came to 4.14 kcal/mol. Moreover, under “pH 5”, the denaturant m value was found to be 2.64 kcal/mol/M, the “denaturant midpoint (higher = more stable)” value was found to be 2.06 M and the unfolding free energy was 5.44 kcal/mol.
